Here are results for five molecules from US10501734B2, “Compositions and methods of use thereof for making polypeptides with many instances of nonstandard amino acids” (Yale University, priority 2014, dated 2019).

Positions count from the first letter of the chain named. Numbers in names are those of the source.

The test system of one series is tRNA. Put plainly: Aminoacylation assay (tRNA charging). The series is classed as biochemical. To be noted: for Fold change: relative to progenitor pAcFRS. As to the method:
Template plasmid containing tRNA gene was purified with the plasmid maxi kit (Qiagen), and 100 μg of plasmid was digested with BstNI (New England Biolabs). The BstNI digested template DNA was purified by phenol chloroform extraction, followed by ethanol precipitation and resolved in double distilled water. A His-tagged T7 RNA polymerase was purified over column of Ni-NTA resin according to manufacturer's instructions (Qiagen). The transcription reaction [40 mM Tris (pH 8); 4 mM each of UTP, CTP, GTP, and ATP at pH 7.0; 22 mM MgCl2; 2 mM spermidine; 10 mM DTT; 6 μg pyrophosphatase (Roche Applied Science); 60 μg/mL BstNI digested DNA template, approximately 0.2 mg/ml T7 RNA polymerase] was performed in 10 ml reaction volumes for overnight at 37° C. The tRNA was purified on 12% denaturing polyacrylamide gel containing 8 M urea and TBE buffer (90 mM Tris, 90 mM boric acid, 2 mM EDTA). UV shadowing illuminates the pure tRNA band, which is excised and extracted three times with 1M sodium acetate pH 5.3 at 4° C. The tRNA extractions were then ethanol precipitated, dissolved in RNase-free distilled water, pooled, and finally desalted using a Biospin 30 column (BioRad). The ratio of aminoacylated tRNA to total tRNA was determined to monitor reaction progress.
The tRNA was refolded by heating to 100° C. for 5 min and slow cooling to room temperature. At 65° C., MgC12, was added to a final concentration of 10 mM to aid folding. A His-tagged CCA adding enzyme was purified over column of Ni-NTA resin according to manufacturer's instructions (Qiagen). 16 μM folded tRNA in 50 mM Tris (pH 8.0), 20 mM MgCl2, 5 mM DTT and 50 μM NaPPi was incubated at room temperature for 1 hour with approximately 0.2 mg/ml CCA-adding enzyme and 1.6 μCi/μl of [α-32P]-labeled ATP (PerkinElmer). The sample was phenol/chloroform extracted and then passed over a Bio-spin 30 column (Bio-Rad) to remove excess ATP.
A 20 μl aminoacylation reaction contained the following components: 50 mM HEPES-KOH (pH 7.2), 25 mM KCl, 10 mM MgCl2, 5 mM DTT, 10 mM ATP, 25 μg/ml pyrophosphatase (Roche Applied Science), 2 mM amino acids. All plateau tRNA aminoacylation levels were determined at 37° C. according to the reactions conditions described above with 500 nM enzyme, 5 μM unlabeled tRNA plus 100 nM 32P-labeled tRNA. Time points were taken at 5 minutes, 20 minutes and 60 minutes by removing 2 μl aliquots from the reaction and immediately quenching the reaction into an ice-cold 3 μl quench solution [0.66 μg/μl nuclease P1 (Sigma) in 100 mM sodium citrate (pH 5.0)]. For each reaction, 2 μl of blank reaction mixture containing no enzymes was added to the quench solution as the start time point. The nuclease P1 mixture was then incubated at room temperature for 30 min and 1 μl aliquots were spotted on PEI-cellulose plates (Merck) and developed in running buffer containing 5% acetic acid and 100 mM ammonium acetate. Radioactive spots for AMP and AA-AMP (representing free tRNA and aminoacyl-tRNA, respectively) were separated and then visualized and quantified by phosphor imaging by a Molecular Dynamics Storm 860 phosphorimager (Amersham Biosciences). The ratio of aminoacylated tRNA to total tRNA was determined to monitor reaction progress.

A short description of series [1]: ATP-PPi exchange assay (amino acid activation). It counts as biochemical. To be noted: for Fold change: relative to progenitor pAcFRS. As to the method:
A 25 μl ATP-PPi exchange reaction contained the following components: 100 mM HEPES-KOH (pH 7.5), 30 mM KCl, 10 mM MgCl2, 2 mM DTT, 2 mM KF, 2 mM NaPPi, 5 mM ATP, […], 2 μCi/μl of […] (PerkinElmer) and varied concentrations of amino acids (0.25, 0.5, 1.25, 2.5, 5, 10, and 20 mM, respectively). The reactions were incubated at 37° C. Time points were taken at 2 minutes, 5 minutes and 10 minutes by plotting 1 μl aliquots from the reaction immediately to the PEI-cellulose plates (Merck). For each reaction, 1 μl of blank reaction mixture containing no enzymes was set as background. The reaction mixtures were separated on the plates in 1 M urea and 1 M monopotassium phosphate. The plates were then scanned in a Molecular Dynamics Storm 860 phosphorimager (Amersham Biosciences). The ratio of ATP to PPi was determined to monitor reaction progress. The kinetic constants were derived from plotting initial velocity of a series of reactions that contained varied concentrations of amino acids. The data were analyzed by GraFit 5.0 (Erithacus Software).

The subject of a further series is ELP(30TAG)-GFP. Put plainly: ELP expression and purification, yield of purified ELP(30TAG)-GFP. It counts as cell-based, E. coli. As to the method: Before batch expression, starter cultures (2 mL) of 2×YT media supplemented with 30 μg/mL kanamayacin and 20 μg/mL chloramphenicol were inoculated with transformed cells from a fresh agar plate or from stocks stored at −80° C., and incubated overnight at 34° C. while shaking at 250 rpm. Expression cultures (250 ml flasks containing 50 ml of 2×YT media, antibiotics, 0.2% arabinose and 1 mM of the nsAA) were inoculated with 0.5 ml of the starter culture and incubated at 34° C. for 4 h and then reporter protein expression was induced with 60 μg/mL anhydrotetracyclin.
Cells were harvested 24 h after inoculation by centrifugation at 4,000 g for 15 min at 4° C. The cell pellet was resuspended by vortex in ˜1.5 mL PBS buffer and stored at −80° C. or immediately purified. For purification, resuspended pellets were lysed by ultrasonic disruption (9 cycles of 10 s sonication separated by 40 s intervals). Poly(ethyleneimine) (0.2 mL of 10% solution) was added to each lysed suspension before centrifugation at 15,000 g for 3 min to separate cell debris from the soluble cell lysate.
All ELP constructs were purified by a modified Inverse Transition Cycling (ITC) protocol consisting of multiple “hot” and “cold” spins using sodium citrate to trigger the phase transition. Before purification, the soluble cell lysate was incubated for 1-2 min at ˜65° C. to denature native E. coli proteins. For “hot” spins, the ELP phase transition was triggered by adding sodium citrate to the cell lysate or the product of a previous cycle of ITC at a final concentration of ˜0.5 M. The solutions were then centrifuged at 14,000 g for 3 min and the pellets were resuspended in PBS, followed by a 3-5 min “cold” spin performed without addition of sodium citrate to remove denatured contaminant. Additional rounds of ITC were carried out as needed until sufficient purification was achieved.
Protein concentration was calculated by measuring the OD280 of purified protein stocks according to the following extinction coefficients for ELP(30TAG)-GFP.

B1: pAzFRS.1.t1: pAcFRS variant D158V, I159M, L162D, A167Y, R257G, SEQ ID NO: 11 (protein)
chain: MDEFEMIKRNTSEIISEEELREVLKKDEKSALIGFEPSGKIHLGHYLQIKKMIDLQNAGFDIIILLADLHAYLNQKGELDEIRKIGDYNKKVFEAMGLKAKYVYGSEFQLDKDYTLNVYRLALKTTLKRARRSMELIAREDENPKVAEVIYPIMQVNVMHYDGVDVYVGGMEQRKIHMLARELLPKKVVCIHNPVLTGLDGEGKMSSSKGNFIAVDDSPEEIRAKIKKAYCPAGVVEGNPIMMEIAKYFLEYPLTIKGPEKFGGDLTVNSYEELESLFKNKELHPMRLKNAVAEELIKILEPIRKRL
One may read the Km as the substrate concentration at which the rate is half of its maximum. As to B1, in the series on tRNA (nsAA pAzF), the Km came to 24 ± 3 µM, the kcat is listed as 0.49 ± 0.17 ×10^−3 s^−1 and the Fold change was 3.29. In series [1] (nsAA pAzF), the Km came out at 990 ± 130 µM, the kcat was 4.79 ± 0.67 ×10^−2 s^−1 and the Fold change worked out at 3.32.

B2: pAcFRS.1.t1: pAcFRS variant A167D, R257G, SEQ ID NO: 5 (protein)
chain: MDEFEMIKRNTSEIISEEELREVLKKDEKSALIGFEPSGKIHLGHYLQIKKMIDLQNAGFDIIILLADLHAYLNQKGELDEIRKIGDYNKKVFEAMGLKAKYVYGSEFQLDKDYTLNVYRLALKTTLKRARRSMELIAREDENPKVAEVIYPIMQVNGCHYRGVDVDVGGMEQRKIHMLARELLPKKVVCIHNPVLTGLDGEGKMSSSKGNFIAVDDSPEEIRAKIKKAYCPAGVVEGNPIMEIAKYFLEYPLTIKGPEKFGGDLTVNSYEELESLFKNKELHPMRLKNAVAEELIKILEPIRKRL
As for B2, the Km in the series on tRNA (nsAA pAcF) stood at 16 ± 4 µM; with tRNA (nsAA pAzF), 16 ± 1 µM; in series [1] (nsAA pAcF) it was 1680 ± 780 µM; in series [1] (nsAA pAzF), 1490 ± 110 µM. For the same molecule, the kcat with tRNA (nsAA pAcF) is on record as 1.12 ± 0.14 ×10^−3 s^−1; with tRNA (nsAA pAzF), 0.63 ± 0.12 ×10^−3 s^−1; in series [1] (nsAA pAcF), 6.12 ± 0.74 ×10^−2 s^−1; in series [1] (nsAA pAzF) it was 3.65 ± 0.62 ×10^−2 s^−1. In addition, the Fold change in the series with tRNA (nsAA pAcF) stood at 9.58; in the series on tRNA (nsAA pAzF), 6.33; in series [1] (nsAA pAcF), 5.34; in series [1] (nsAA pAzF) it was 1.68. Also, in the series with ELP(30TAG)-GFP (nsAA pAcF, GRO), the “Yield of purified ELP(30TAG)-GFP” value is 52.6 ± 6.3 mg/L.

B3: pAcFRS.2.t1: pAcFRS variant L65V, A167D, R257G, SEQ ID NO: 8 (protein)
chain: B2 chain with L65V
In the case of B3, in the series with tRNA (in vitro biochemical analysis), the “decrease in tRNA charging for pAzF compared with pAcF” value came to 2.8 fold. The Km was determined as 18 ± 2 µM in the series with tRNA (nsAA pAcF), 24 ± 7 µM in the series on tRNA (nsAA pAzF), 2810 ± 890 µM in series [1] (nsAA pAcF) and 6590 ± 1700 µM in series [1] (nsAA pAzF). For the same molecule, the kcat in the series on tRNA (nsAA pAcF) was 0.54 ± 0.15 ×10^−3 s^−1; in the series on tRNA (nsAA pAzF), 0.22 ± 0.05 ×10^−3 s^−1; in series [1] (nsAA pAcF) it was 5.43 ± 0.54 ×10^−2 s^−1; in series [1] (nsAA pAzF), 4.22 ± 0.45 ×10^−2 s^−1. In addition, the Fold change in the series on tRNA (nsAA pAcF) was determined as 4.10; with tRNA (nsAA pAzF), 1.47; in series [1] (nsAA pAcF), 2.84; in series [1] (nsAA pAzF) it was 0.44. Further, the “decrease in aminoacylation for pAzF compared with pAcF” value in series [1] (in vitro biochemical analysis) is 5 fold. The “Yield of purified ELP(30TAG)-GFP” value in the series with ELP(30TAG)-GFP (nsAA 4CF3F, GRO) is 53 ± 5.4 mg/L; with ELP(30TAG)-GFP (nsAA BuY, GRO), 64.5 ± 9.7 mg/L.

B4: pAcFRS: progenitor M. jannaschii based p-acetyl-L-phenylalanine AARS, SEQ ID NO:1 (Young, et al., 2010) (protein, listed as Methanocaldococcus jannaschii)
chain: B2 chain with D167A, G257R
Take B4: the Km is 34 ± 6 µM with tRNA (nsAA pAcF), 34 ± 7 µM in the series with tRNA (nsAA pAzF), 7340 ± 1620 µM in series [1] (nsAA pAcF) and 3040 ± 270 µM in series [1] (nsAA pAzF). For the same molecule, the kcat with tRNA (nsAA pAcF) was 0.25 ± 0.04 ×10^−3 s^−1; with tRNA (nsAA pAzF) it was 0.23 ± 0.03 ×10^−3 s^−1; in series [1] (nsAA pAcF), 5.01 ± 0.48 ×10^−2 s^−1; in series [1] (nsAA pAzF), 4.45 ± 0.13 ×10^−2 s^−1. Besides, the Fold change (with tRNA (nsAA pAcF); with tRNA (nsAA pAzF); in series [1] (nsAA pAcF); in series [1] (nsAA pAzF)) was 1 in each case. The “Yield of purified ELP(30TAG)-GFP” value in the series on ELP(30TAG)-GFP (nsAA pAcF, GRO) came to 10.5 ± 5.5 mg/L; with ELP(30TAG)-GFP (nsAA pAcF, Non-recoded E. coli), 3.04 ± 1.4 mg/L.

B5: pAzFRS.2.t1: pAcFRS variant E107T, F108Y, Q109M, R257G, SEQ ID NO: 14 (protein)
chain: B2 chain with E107T, F108Y, Q109M, D167A
With B5, the values for the Michaelis constant (Km) (in the series on tRNA (nsAA pAzF); in series [1] (nsAA pAzF)) were 14 ± 3 µM and 1400 ± 350 µM, respectively. Further, the values for the kcat (in the series with tRNA (nsAA pAzF); in series [1] (nsAA pAzF)) were 0.71 ± 0.13 ×10^−3 s^−1 and 4.14 ± 0.23 ×10^−2 s^−1, respectively. The results for the Fold change (with tRNA (nsAA pAzF); in series [1] (nsAA pAzF)) were 8.17 and 2.02, respectively. Also, the “Yield of purified ELP(30TAG)-GFP” value was 48.2 ± 11.2 mg/L with ELP(30TAG)-GFP (nsAA 4ClF, GRO); 39.05 ± 3.4 mg/L in the series with ELP(30TAG)-GFP (nsAA pAcF, GRO); 41.9 ± 6^ mg/L in the series with ELP(30TAG)-GFP (nsAA pAzF, GRO).
